According to the RNAGym collection of RNA variant scans (doi:10.7554/elife.90254):

B1: LINE1-mini (parent)
chain: GGCAGAGCUCAACACAGCGUGGCAAAGUGGCUGUGGCUAGACUGCC

Variants of: B1
Assay: self-cleavage, relative activity (ratio to wild type); higher = more cleavage; in vitro, sequencing; the parent is a self-cleaving ribozyme

Variant	self-cleavage
U9G G22A	0.21
U9G G22C	0.1
U9G G22U	0.19
C10G G30U	0.22
C10G G30A	0.21
C10G G30C	0.2
C10A A26U	0.06
C10A A26G	0.12
C10A A26C	0.04
C10A C13U	0.04
C10A C13A	0.03
C10A C13G	0.03
C10G A16G	0.06
C10G A16C	0.02
C10G A16U	0.06
U9G G19A	0.18
U9G G19U	0.1
U9G G19C	0.06
U9G G33U	0.08
U9G G33C	0.05
U9G G33A	0.06
C10G C37G	0.01
C10G C37U	0.01
C10G C37A	0.01

Variant	self-cleavage
C10U C37A	0.02
C10U C37U	0.02
C10U C37G	0.02
C10G G21U	0.14
C10G G21C	0.07
C10G G21A	0.18
C10A G33U	0.05
C10A G33A	0.04
C10A G33C	0.03
C10G C45A	0.07
C10G C45U	0.14
C10G C45G	0.02
C10U A12C	0.02
C10U A12G	0.02
C10U A12U	0.08
C10U A25G	0.39
C10U A25U	0.48
C10U A25C	0.21
C10G C23A	0.08
C10G C23U	0.09
C10G C23G	0.07
C10A C23U	0.06
C10A C23G	0.07
C10A C23A	0.06

Variant	self-cleavage
C10A G21A	0.08
C10A G21U	0.04
C10A G21C	0.04
C10U A24U	0.48
C10U A24C	0.11
C10U A24G	0.35
U9G U38C	0.09
U9G U38G	0.01
U9G U38A	0.06
C10G G19C	0.06
C10G G19A	0.1
C10G G19U	0.11
C10G A26G	0.12
C10G A26U	0.15
C10G A26C	0.11
C10U C23G	0.26
C10U C23A	0.43
C10U C23U	0.43
C10A G40C	0.02
C10A G40A	0.02
C10A G40U	0.03
C10U	0.34
C10G	0.11
C10A	0.07

Variant	self-cleavage
C10U C46A	0.33
C10U C46G	0.32
C10U C46U	0.21
C10G U38C	0.02
C10G U38A	0.06
C10G U38G	0.03
C10G G29A	0.1
C10G G29C	0.04
C10G G29U	0.08
C10G C18U	0.09
C10G C18G	0.04
C10G C18A	0.08
C10A G35A	0.04
C10A G35U	0.03
C10A G35C	0.02
C10U G17U	0.33
C10U G17A	0.34
C10U G17C	0.61
C10A G27A	0.06
C10A G27U	0.06
C10A G27C	0.04
C10G U34C	0.04
C10G U34G	0.03
C10G U34A	0.03

Variant	self-cleavage
C10U C18U	0.34
C10U C18G	0.22
C10U C18A	0.28
C10G G33C	0.02
C10G G33A	0.03
C10G G33U	0.02
C10A C46A	0.05
C10A C46G	0.04
C10A C46U	0.07
C10G A25G	0.08
C10G A25U	0.1
C10G A25C	0.1
C10A C15A	0.04
C10A C15U	0.08
C10A C15G	0.04
C10U A41C	0.03
C10U A41U	0.16
C10U A41G	0.07
C10A G30C	0.08
C10A G30U	0.09
C10A G30A	0.1
C10G U20A	0.06
C10G U20C	0.07
C10G U20G	0.05

Variant	self-cleavage
C10A G44C	0.07
C10A G44U	0.03
C10A G44A	0.07
C10A A41U	0.02
C10A A41G	0.03
C10A A41C	0.04
C10G G35A	0.03
C10G G35U	0.04
C10G G35C	0.02
U9G G44A	0.12
U9G G44U	0.08
U9G G44C	0.03
U9G U43A	0.07
U9G U43C	0.04
C10A A16C	0.04
C10A A16U	0.05
C10A A16G	0.07
C10A U43A	0.01
C10A U43C	0.03
C10A U43G	0
U9G G27U	0.06
U9G G27A	0.07
U9G G27C	0.08
C10U A14C	0.05

Variant	self-cleavage
C10U A14G	0.22
C10U A14U	0.14
C10G G40A	0.01
C10G G40U	0.02
C10G G40C	0.02
U9G G35A	0.11
U9G G35C	0.03
U9G G35U	0.07
U9G G29U	0.07
U9G G29C	0.05
U9G G29A	0.08
C10G U32G	0.02
C10G U32A	0.02
C10G U32C	0.03
C10G G36A	0.01
C10G G36U	0.02
C10G G36C	0.03
C10A C45A	0.04
C10A C45U	0.07
C10A C45G	0.03
C10A A24G	0.06
C10A A24C	0.03
C10A A24U	0.05
C10G A41U	0.05

Variant	self-cleavage
C10G A41G	0.05
C10G A41C	0.01
C10G A24G	0.1
C10G A24U	0.15
C10G A24C	0.06
C10A U32G	0.03
C10A U32A	0.02
C10A U32C	0.03
C10A G36U	0.04
C10A G36A	0.02
C10A G36C	0.02
U9G G21A	0.13
U9G G21C	0.08
U9G G21U	0.06
U9G G17C	0.1
U9G G17U	0.08
U9G G17A	0.12
C10U G21C	0.19
C10U G21A	0.68
C10A A11C	0.02
C10A A11G	0.03
C10A A11U	0.03
C10U G19C	0.24
C10U G19A	0.32

Variant	self-cleavage
C10U G19U	0.21
C10G A14G	0.09
C10G A14U	0.05
C10G A14C	0.04
C10U A16C	0.06
C10U A16U	0.19
C10U A16G	0.19
C10U A11G	0.05
C10U A11U	0.09
C10U A11C	0.05
C10A G22U	0.07
C10A G22C	0.03
C10A G22A	0.05
C10U A26C	0.31
C10U A26G	0.4
C10U A26U	0.31
C10G C15U	0.09
C10G C15G	0.03
C10G C15A	0.04
C10A A12U	0.04
C10A A12C	0.04
C10A A12G	0.02
U9G U32G	0.05
U9G U32C	0.05

Variant	self-cleavage
U9G U32A	0.12
C10G G27A	0.14
C10G G27C	0.09
C10G G27U	0.08
C10A C42G	0.16
C10A C42A	0.02
C10A C42U	0.03
U9G U28A	0.11
U9G U28G	0.06
U9G U28C	0.04
C10U C31U	0.54
C10U C31A	0.13
C10U C31G	0.05
C10G C13U	0.04
C10G C13G	0.08
C10G C13A	0.03
U9G G30A	0.09
U9G G30U	0.1
U9G G30C	0.06
C10G A39C	0.02
C10G A39U	0.16
C10G A39G	0.03
U9G G36C	0.04
U9G G36U	0.12

Variant	self-cleavage
U9G G36A	0.61
C10A U34G	0.04
C10A U34C	0.04
C10A U34A	0.05
C10G C42G	0.03
C10G C42A	0.03
C10G C42U	0.03
C10G U28G	0.08
C10G U28C	0.12
C10G U28A	0.11
C10A G19U	0.06
C10A G19C	0.05
C10A G19A	0.07
C10G G17U	0.07
C10G G17A	0.16
C10G G17C	0.23
C10U C42G	0.05
C10U C42A	0.05
C10U C42U	0.1
C10A U28G	0.06
C10A U28C	0.07
C10A U28A	0.04
C10U C13U	0.06
C10U C13G	0.09

Variant	self-cleavage
C10U C13A	0.06
C10U A39G	0.08
C10U A39C	0.17
C10U A39U	0.37
C10A C18U	0.07
C10A C18G	0.04
C10A C18A	0.07
C10A U20A	0.05
C10A U20C	0.06
C10A U20G	0.03
C10G C31U	0.05
C10G C31G	0.02
C10G C31A	0.04
C10G A12C	0.03
C10G A12U	0.03
C10G A12G	0.03
C10A G17U	0.05
C10A G17C	0.1
C10A G17A	0.04
U9G U20A	0.07
U9G U20C	0.05
U9G U20G	0.06
C10A C37G	0.01
C10A C37U	0.01

Variant	self-cleavage
C10A C37A	0.01
C10A G29A	0.06
C10A G29C	0.04
C10A G29U	0.04
U9G U34C	0.06
U9G U34G	0.05
U9G U34A	0.04
C10A U38C	0.16
C10A U38A	0.15
C10A U38G	0.05
C10G C46U	0.06
C10G C46A	0.09
C10G C46G	0.05
C10U C45A	0.15
C10U C45U	0.23
C10U C45G	0.15
C10A A25C	0.05
C10A A25G	0.04
C10A A25U	0.1
C10G G22U	0.11
C10G G22A	0.13
C10G G22C	0.12
C10A A39G	0.04
C10A A39U	0.24

Variant	self-cleavage
C10A A39C	0.05
C10G U43A	0.01
C10G U43C	0.02
C10G U43G	0.02
C10A C31G	0.03
C10A C31A	0.03
C10A C31U	0.04
C10A A14U	0.05
C10A A14G	0.06
C10A A14C	0.02
C10G A11C	0.02
C10G A11U	0.04
C10G A11G	0.03
U9G G40U	0.08
U9G G40A	0.08
U9G G40C	0.08
C10U C15U	0.28
C10U C15G	0.05
C10U C15A	0.06
C10G G44U	0.04
C10G G44A	0.05
C10G G44C	0.06
